# In the supplement of paper PMC10065799, “High-throughput profiling of sequence recognition by tyrosine kinases and SH2 domains using bacterial peptide display” (eLife, 2023):
# Columns and labels:
# [1] = target: FGFR1 (UniProt P11362); test: phosphorylation enrichment, bacterial display (enrichment ratio); higher = better substrate or ligand; peptides without Tyr show the background
# [2] = target: MERTK (UniProt Q12866); test: as above
# [3] = target: Fes (UniProt P07332); test: as above
# [4] = target: EPHB2 (UniProt P29323); test: as above
# [5] = target: EPHB1 (UniProt P54762); test: as above
# [6] = tested on: c-Src; test: as above
# [7] = tested on: c-Abl (mouse); test: as above
# [8] = tested on: Fer (mouse); test: as above
# [9] = target: Jak2 (UniProt O60674); test: as above
# Jak2, sequence (O60674 whole entry, looked up): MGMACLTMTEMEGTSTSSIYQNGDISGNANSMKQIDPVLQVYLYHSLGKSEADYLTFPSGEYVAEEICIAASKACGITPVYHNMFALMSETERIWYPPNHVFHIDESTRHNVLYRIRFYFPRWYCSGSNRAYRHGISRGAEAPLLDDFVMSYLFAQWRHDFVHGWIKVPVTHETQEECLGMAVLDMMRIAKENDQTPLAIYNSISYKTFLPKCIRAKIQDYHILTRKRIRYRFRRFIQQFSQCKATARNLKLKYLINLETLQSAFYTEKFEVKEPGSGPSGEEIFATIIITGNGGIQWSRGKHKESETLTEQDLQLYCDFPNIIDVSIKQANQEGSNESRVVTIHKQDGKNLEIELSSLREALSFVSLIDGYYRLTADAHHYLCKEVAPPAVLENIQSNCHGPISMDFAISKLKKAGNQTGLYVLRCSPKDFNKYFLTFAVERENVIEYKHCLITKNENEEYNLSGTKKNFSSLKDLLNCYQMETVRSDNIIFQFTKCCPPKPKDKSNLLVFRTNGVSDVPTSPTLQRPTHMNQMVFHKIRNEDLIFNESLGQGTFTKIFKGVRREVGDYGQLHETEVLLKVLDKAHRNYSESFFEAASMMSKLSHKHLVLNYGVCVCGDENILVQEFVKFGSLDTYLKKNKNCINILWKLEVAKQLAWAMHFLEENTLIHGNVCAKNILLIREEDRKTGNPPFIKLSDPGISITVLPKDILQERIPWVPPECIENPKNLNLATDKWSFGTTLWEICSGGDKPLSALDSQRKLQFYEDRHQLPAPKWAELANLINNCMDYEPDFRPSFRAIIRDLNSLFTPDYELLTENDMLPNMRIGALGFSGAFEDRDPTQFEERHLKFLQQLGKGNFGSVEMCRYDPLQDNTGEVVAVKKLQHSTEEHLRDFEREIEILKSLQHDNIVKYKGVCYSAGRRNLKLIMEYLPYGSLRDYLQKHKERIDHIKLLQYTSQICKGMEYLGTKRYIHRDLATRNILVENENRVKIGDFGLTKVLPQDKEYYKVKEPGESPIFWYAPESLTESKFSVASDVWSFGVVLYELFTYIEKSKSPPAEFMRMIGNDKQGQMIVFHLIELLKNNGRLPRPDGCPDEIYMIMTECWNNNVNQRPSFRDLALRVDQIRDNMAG
# [10] = target: Hck (UniProt P08631); test: as above
# Hck, sequence (P08631 whole entry, looked up): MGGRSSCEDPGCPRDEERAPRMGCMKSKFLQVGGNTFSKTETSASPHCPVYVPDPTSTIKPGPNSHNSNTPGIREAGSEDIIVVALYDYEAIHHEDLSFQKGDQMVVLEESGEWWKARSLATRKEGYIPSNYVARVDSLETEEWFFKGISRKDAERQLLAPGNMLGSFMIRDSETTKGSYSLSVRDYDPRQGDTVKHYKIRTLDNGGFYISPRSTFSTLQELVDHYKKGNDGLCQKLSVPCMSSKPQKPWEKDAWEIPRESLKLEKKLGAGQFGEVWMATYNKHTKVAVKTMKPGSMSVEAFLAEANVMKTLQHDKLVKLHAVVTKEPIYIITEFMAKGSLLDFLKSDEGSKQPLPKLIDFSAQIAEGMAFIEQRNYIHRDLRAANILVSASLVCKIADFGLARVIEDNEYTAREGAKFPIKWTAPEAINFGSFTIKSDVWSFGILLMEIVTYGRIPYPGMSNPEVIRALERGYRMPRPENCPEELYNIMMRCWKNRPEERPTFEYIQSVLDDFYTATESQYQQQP
# [11] = tested on: AncSZ; test: as above
# [12] = target: FGFR3 (UniProt P22607); test: as above
# FGFR3, sequence (P22607 whole entry, looked up): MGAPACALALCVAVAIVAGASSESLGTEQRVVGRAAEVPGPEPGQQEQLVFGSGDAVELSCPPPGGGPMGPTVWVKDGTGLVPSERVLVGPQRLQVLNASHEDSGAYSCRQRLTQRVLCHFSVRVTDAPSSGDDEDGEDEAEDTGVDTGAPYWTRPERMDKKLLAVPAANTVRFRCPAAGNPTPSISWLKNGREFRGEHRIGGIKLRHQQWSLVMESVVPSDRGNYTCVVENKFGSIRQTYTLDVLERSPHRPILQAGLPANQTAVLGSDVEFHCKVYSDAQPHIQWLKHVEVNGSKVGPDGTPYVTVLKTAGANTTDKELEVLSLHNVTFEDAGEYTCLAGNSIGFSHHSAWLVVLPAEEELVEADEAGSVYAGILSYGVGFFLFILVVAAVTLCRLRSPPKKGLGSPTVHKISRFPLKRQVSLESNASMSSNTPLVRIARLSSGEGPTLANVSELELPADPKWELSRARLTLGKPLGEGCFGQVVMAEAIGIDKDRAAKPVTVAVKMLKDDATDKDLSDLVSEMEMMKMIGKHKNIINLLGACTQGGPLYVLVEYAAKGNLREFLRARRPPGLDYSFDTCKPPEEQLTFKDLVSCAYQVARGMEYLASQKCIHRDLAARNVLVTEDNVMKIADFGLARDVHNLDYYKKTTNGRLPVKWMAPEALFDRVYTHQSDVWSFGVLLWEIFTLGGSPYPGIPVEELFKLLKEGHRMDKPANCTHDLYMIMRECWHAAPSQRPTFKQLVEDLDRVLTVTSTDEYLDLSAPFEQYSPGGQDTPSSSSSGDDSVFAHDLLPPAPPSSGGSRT
# [13] = target: Fyn (UniProt P06241); test: as above
# Fyn, sequence (P06241 whole entry, looked up): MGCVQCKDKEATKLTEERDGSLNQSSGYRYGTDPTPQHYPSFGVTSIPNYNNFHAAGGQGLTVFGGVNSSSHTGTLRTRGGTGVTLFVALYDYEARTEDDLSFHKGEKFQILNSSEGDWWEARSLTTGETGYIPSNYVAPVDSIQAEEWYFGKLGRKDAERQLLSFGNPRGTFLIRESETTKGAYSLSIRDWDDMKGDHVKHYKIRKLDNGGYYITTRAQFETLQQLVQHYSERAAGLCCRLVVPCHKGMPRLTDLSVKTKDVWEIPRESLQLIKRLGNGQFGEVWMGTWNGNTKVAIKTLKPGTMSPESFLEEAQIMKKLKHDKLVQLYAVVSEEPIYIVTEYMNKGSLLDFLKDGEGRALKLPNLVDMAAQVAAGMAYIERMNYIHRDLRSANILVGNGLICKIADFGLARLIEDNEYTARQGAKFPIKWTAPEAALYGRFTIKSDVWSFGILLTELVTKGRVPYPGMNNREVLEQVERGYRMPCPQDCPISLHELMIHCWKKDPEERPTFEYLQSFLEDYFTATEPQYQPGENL
# [14] = target: c-Src SH2; test: SH2 binding enrichment of the phosphorylated peptide, bacterial display (enrichment ratio); higher = better substrate or ligand; peptides without Tyr show the background
# [15] = target: SHP2-C SH2; test: as above
# [16] = target: Grb2 SH2 (UniProt P62993); test: as above
# 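Throughout, for SH2 binding enrichment of the phosphorylated peptide, bacterial display: peptide library displayed on the E. coli surface as eCPX fusions, selected cells deep-sequenced, score is each peptide's frequency after selection divided by its frequency in the input.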
# 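Throughout, for phosphorylation enrichment, bacterial display: 11-residue human phosphosite peptides and single-mutation variants displayed on the E. coli surface, counted by deep sequencing, each peptide's frequency after selection divided by its frequency in the unselected input library; frequency after pTyr selection over input frequency; kinase dosed for 20-30% of maximal phosphorylation in three min.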
# MERTK, sequence (Q12866 whole entry, looked up): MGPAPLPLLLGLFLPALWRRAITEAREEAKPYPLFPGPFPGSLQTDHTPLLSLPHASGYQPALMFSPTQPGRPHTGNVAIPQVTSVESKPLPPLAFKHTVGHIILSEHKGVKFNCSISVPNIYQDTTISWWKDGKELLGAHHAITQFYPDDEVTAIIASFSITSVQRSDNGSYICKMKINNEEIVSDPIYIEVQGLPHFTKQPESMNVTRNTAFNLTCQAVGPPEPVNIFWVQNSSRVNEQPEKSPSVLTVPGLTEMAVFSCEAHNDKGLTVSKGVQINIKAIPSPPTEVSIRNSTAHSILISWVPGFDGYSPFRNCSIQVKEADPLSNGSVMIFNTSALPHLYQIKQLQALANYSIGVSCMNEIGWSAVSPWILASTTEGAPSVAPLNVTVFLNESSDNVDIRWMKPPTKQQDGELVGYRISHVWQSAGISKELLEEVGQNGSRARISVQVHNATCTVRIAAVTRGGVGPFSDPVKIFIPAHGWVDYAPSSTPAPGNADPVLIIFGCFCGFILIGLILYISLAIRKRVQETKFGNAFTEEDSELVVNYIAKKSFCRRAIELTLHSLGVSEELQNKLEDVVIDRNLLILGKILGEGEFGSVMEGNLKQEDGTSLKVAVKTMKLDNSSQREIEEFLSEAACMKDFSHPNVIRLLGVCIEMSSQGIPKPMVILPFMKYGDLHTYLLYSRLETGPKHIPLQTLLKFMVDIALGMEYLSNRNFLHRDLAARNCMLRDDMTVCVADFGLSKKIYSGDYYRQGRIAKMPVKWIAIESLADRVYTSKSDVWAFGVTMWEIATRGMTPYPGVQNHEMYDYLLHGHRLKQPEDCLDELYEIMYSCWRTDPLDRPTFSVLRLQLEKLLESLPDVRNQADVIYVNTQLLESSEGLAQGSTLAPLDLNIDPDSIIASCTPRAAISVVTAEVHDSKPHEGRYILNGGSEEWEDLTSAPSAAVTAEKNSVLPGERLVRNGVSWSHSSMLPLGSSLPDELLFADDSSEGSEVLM
# Fes, sequence (P07332 whole entry, looked up): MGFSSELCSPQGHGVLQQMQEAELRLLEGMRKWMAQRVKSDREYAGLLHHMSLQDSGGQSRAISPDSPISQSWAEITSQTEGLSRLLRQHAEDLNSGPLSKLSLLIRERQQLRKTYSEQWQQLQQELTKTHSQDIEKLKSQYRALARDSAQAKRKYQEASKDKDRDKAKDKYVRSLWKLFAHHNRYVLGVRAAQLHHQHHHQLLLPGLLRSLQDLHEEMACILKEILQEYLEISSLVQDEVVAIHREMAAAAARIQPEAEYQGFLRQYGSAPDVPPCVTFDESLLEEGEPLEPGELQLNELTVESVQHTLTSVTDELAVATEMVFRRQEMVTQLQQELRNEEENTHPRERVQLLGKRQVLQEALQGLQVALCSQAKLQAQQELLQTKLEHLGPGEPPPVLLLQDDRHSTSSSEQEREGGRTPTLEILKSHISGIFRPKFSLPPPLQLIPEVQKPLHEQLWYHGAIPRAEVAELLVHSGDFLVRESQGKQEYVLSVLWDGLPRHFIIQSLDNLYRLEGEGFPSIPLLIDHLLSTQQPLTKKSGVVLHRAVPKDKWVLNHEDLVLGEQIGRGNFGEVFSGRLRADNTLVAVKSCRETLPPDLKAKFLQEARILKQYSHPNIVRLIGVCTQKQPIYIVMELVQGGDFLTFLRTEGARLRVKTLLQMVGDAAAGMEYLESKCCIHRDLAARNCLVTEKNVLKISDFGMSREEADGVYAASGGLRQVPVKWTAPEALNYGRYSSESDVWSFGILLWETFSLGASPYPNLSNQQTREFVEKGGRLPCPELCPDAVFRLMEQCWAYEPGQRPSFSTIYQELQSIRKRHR
Sequence,SH2 binding enrichment [14],SH2 binding enrichment [15],SH2 binding enrichment [16],phosphorylation enrichment [1],phosphorylation enrichment [2],phosphorylation enrichment [3],phosphorylation enrichment [4],phosphorylation enrichment [5],phosphorylation enrichment [6],phosphorylation enrichment [7],phosphorylation enrichment [8],phosphorylation enrichment [9],phosphorylation enrichment [10],phosphorylation enrichment [11],phosphorylation enrichment [12],phosphorylation enrichment [13]
KGLMPYGQPRP [SRRT_Y798_Q793K],0.558,0.986,0.923,0.388,0.527,0.727,0.371,0.365,0.378,0.455,0.363,0.426,0.325,0.444,0.366,0.36
GLRQGYFVEAQ [APCS_Y142],0.618,0.718,0.85,0.559,0.36,1.08,0.505,0.526,0.327,0.529,0.42,0.807,0.408,0.945,0.637,0.366
FTYDPYSEEEP [IL2RB_Y387_D391E],0.817,0.699,0.92,0.5,0.524,1.25,0.572,0.652,1.69,0.915,0.601,1.27,0.825,1.22,0.818,1.14
HFEFKYVINAI [MAOA_Y268_C266F_YF],0.561,0.772,0.814,0.391,0.678,2.11,0.89,0.686,0.576,1.26,0.829,1.81,0.668,1.66,0.854,0.441
EEHIPCTHMNG [INSR_Y1361_Y1361C],0.649,0.7,0.709,0.592,0.552,0.867,0.597,0.581,0.497,0.865,0.612,1.03,0.435,0.916,0.632,0.436
RNNTEYVRDIG [MUSK_Y577_I575T],0.745,0.645,0.834,0.418,0.33,0.582,0.41,0.422,0.328,0.479,0.302,0.364,0.428,0.717,0.427,0.496
AGQEGYDRLRP [RAC1_Y64_D63G],0.918,0.501,0.72,0.562,0.36,0.712,0.596,0.43,0.378,0.654,0.347,0.484,0.527,0.547,0.642,0.34
PQGVGYPPQPQ [EP300_Y2219_Q2223P],0.666,0.716,0.998,0.695,0.74,0.904,0.53,0.503,0.802,0.931,0.815,0.926,0.571,0.972,0.569,0.564
DDHFTYSRFPW [LY75_Y888_YF],0.418,0.64,0.833,0.905,3.18,1.07,5.18,4.84,4.98,1.66,0.609,1.28,6.66,1.16,0.797,4.83
ERWLKYFPNEQ [HS3ST5_Y244_I247N],0.707,1.24,0.95,0.438,0.38,1.12,0.584,0.664,0.419,0.518,0.459,0.927,0.482,1.09,0.632,0.62
VKALKYKSMKI [ITGA11_Y1098_L1093V],1.14,1.23,1.29,0.369,0.276,0.507,0.331,0.32,0.306,0.472,0.327,0.434,0.31,0.396,0.405,0.329
LITILYIGFLG [KCNQ1_Y267_T265I],0.845,1.26,0.879,0.72,1.43,2.55,1.18,0.835,1.24,2.13,0.895,2.73,1.08,2.28,1.31,0.809
FKPGFYNLKEK [LAMA1_Y490_C485Y_YF],0.383,0.887,0.915,0.513,0.566,0.689,0.396,0.434,0.466,0.473,0.61,0.499,0.489,0.601,0.616,0.466
TNDRLYLRSLE [MTM1_Y71_Y68D],0.616,0.6,0.855,0.438,0.376,0.978,0.452,0.514,0.535,0.651,0.411,0.937,0.443,0.881,0.503,0.458
QAIDEYEKWLE [MAP9_Y603_N601D],0.432,0.805,0.757,0.515,0.996,1.41,0.716,1.06,0.479,0.85,0.581,1.46,0.607,1.5,1.34,0.66
GAEIVYKSPVV [MAPT_Y711],0.418,0.63,0.758,0.478,0.558,0.904,0.581,0.747,0.526,18.3,0.416,0.694,0.497,0.892,0.672,0.533
REVPVYIGEDS [SYNM_Y460],0.691,0.625,0.707,0.661,0.426,1.36,0.547,0.391,0.481,0.595,0.499,1.02,0.659,1.05,0.909,0.402

# Now from value to sequence, other results behind:
SH2 binding enrichment [14],SH2 binding enrichment [15],SH2 binding enrichment [16],Sequence,phosphorylation enrichment [1],phosphorylation enrichment [2],phosphorylation enrichment [3],phosphorylation enrichment [4],phosphorylation enrichment [5],phosphorylation enrichment [6],phosphorylation enrichment [7],phosphorylation enrichment [8],phosphorylation enrichment [9],phosphorylation enrichment [10],phosphorylation enrichment [11],phosphorylation enrichment [12],phosphorylation enrichment [13]
0.568,0.746,0.914,MWGSDYVHLSR [MAP3K4_Y582_Q584H],3.31,0.53,0.693,1.47,3.2,0.471,0.804,0.417,1.72,0.486,0.951,1.82,0.472
0.414,0.953,0.707,DTFDPYLDVAL [USP36_Y268_YF],0.658,0.557,1.24,0.622,0.641,0.712,0.833,1.52,1.25,0.701,1.18,0.857,0.704
0.38,0.785,0.657,EYFENYIEELK [PARP4_Y218],2.31,0.422,1.4,0.647,0.73,0.63,0.851,0.518,1.5,0.607,1.44,1.69,0.539
0.591,0.454,0.995,TFLRTYTDTMQ [TSPAN7_Y124_A127T],0.486,0.391,0.76,0.491,0.527,0.425,0.69,0.501,0.687,0.403,0.68,0.497,0.464
0.563,0.855,0.938,RTCSSYAIEKI [PARP15_Y520],0.589,0.344,0.986,0.702,0.532,0.383,0.667,0.371,0.894,0.581,1.13,0.629,0.302
7.1,0.724,0.839,QTENKYDSVSG [EIF2AK3_Y565],0.912,0.615,1.13,0.561,0.407,0.467,0.56,0.384,1.98,0.783,0.865,0.64,0.604
0.395,0.601,0.734,KSLFHYRQFSA [CPS1_Y1491_YF],0.546,0.415,0.859,0.453,0.553,0.472,0.59,0.534,0.942,0.42,0.656,0.498,0.466
1.77,0.642,0.744,FKNGDYNEVMK [LCT_Y1638],0.579,0.388,0.903,0.415,0.578,0.388,0.578,0.41,0.595,0.541,0.882,0.548,0.389
0.512,0.593,1.06,EPVSDYINASI [PTPN11_Y304_N308S],0.569,0.494,1.03,0.566,0.608,0.526,0.909,0.5,0.953,0.49,1.05,0.651,0.385
0.704,0.654,0.911,RLAKRYLIWEC [SCN5A_Y694_Q692K],0.64,0.503,1.06,0.604,0.607,0.486,0.771,0.626,0.852,0.505,1.15,0.812,0.375
3.29,1.65,20.8,DTKPVYQNLRQ [BOD1_Y82_A81V],0.511,0.533,0.752,0.44,0.549,1.07,0.708,0.507,0.621,1.29,0.596,0.456,1.07
0.47,0.546,0.68,NGSFLYVIISQ [LRP1B_Y1988_R1987L],0.468,0.468,1.44,0.666,0.844,0.403,0.931,0.663,1.2,0.539,1.27,0.88,0.367
0.449,0.759,0.811,MSSHHCDFKKF [ZNF445_Y428_Y428C_YF],0.437,0.474,0.487,0.393,0.401,0.415,0.529,0.43,0.519,0.452,0.47,0.417,0.392
0.43,0.477,0.739,SECCKYKIDNL [OSMR_Y689_P694L],0.462,0.432,0.939,0.384,0.551,0.436,0.748,0.473,0.823,0.428,0.864,0.685,0.446
1.02,1.41,0.713,EALSLYTKLMN [STAM_Y371],0.391,0.411,1.48,0.639,0.615,0.551,0.832,0.509,1.49,0.505,1.39,0.856,0.402
1.29,0.422,0.729,RPDSPYSRPHD [DOK2_Y271],0.364,0.369,0.519,0.49,0.258,0.372,0.419,0.379,0.436,0.367,0.71,0.485,0.317
